Some results are limits rather than exact numbers.

Experiment [1] deals with HLA-A*02:01. Put plainly: IEDB peptide-MHC binding, purified MHC/competitive/fluorescence; ≥ and ≤ were set here for values at or beyond the usual limits of such assays.
Experiment [2] addresses HLA-B*58:01. The experiment can be described thus: IEDB peptide-MHC binding, purified MHC/direct/fluorescence; filed as Kd, often an IC50 or EC50 that approximates it; ≥ and ≤ were set here for values at or beyond the usual limits of such assays.
The target of experiment [3] is HLA-A*23:01. The experiment can be described thus: IEDB peptide-MHC binding, purified MHC/competitive/radioactivity; filed as Kd, often an IC50 or EC50 that approximates it; ≥ and ≤ were set here for values at or beyond the usual limits of such assays.
Experiment [4] deals with HLA-A*24:02. The experiment is described as above.
The target of experiment [5] is HLA-A*29:02. Described as above.
Experiment [6] concerns the target HLA-A*01:01. The description is as above.
Experiment [7] has as its target HLA-A*30:02. The experiment is described as above.
Experiment [8] addresses HLA-A*26:01. The description is as above.
The target of experiment [9] is HLA-B*15:01. Put plainly: IEDB peptide-MHC binding, purified MHC/direct/fluorescence; filed as Kd, often an IC50 or EC50 that approximates it; ≥ and ≤ were set here for values at or beyond the usual limits of such assays. Particulars: source organism: Salmonella enterica subsp. enterica serovar Typhimurium.
The mark [10] stands for this setting: source organism: Mammarenavirus juninense.
Where [11] appears, read: source organism: Mammarenavirus guanaritoense.
Where [12] appears, read: source organism: SARS coronavirus Tor2.
The mark [13] stands for this setting: source organism: Lassa virus GA391.
Where [14] appears, read: source organism: Mammarenavirus brazilense.
[15] abbreviates: source organism: Lassa virus Josiah.
Where [16] appears, read: source organism: Mammarenavirus whitewaterense.

Turning to IILFQKAFS, the IC50 (as a rule, the concentration at which inhibition is half-maximal) in experiment [1] (source organism: Sudan ebolavirus) turned out to be 67.7 µM.
In experiment [1] (source organism: Human alphaherpesvirus 1 strain 17), NLTIAWPRM had an IC50 not below 50 µM.
For FMNAVGHDW, the Kd (usually the free concentration of one partner at which half of the binding sites on the other are occupied at equilibrium, for simple one-to-one binding) in experiment [2] (setting [10]) was determined as 0.071 µM.
In the case of VLCSSSPTI, the Kd in experiment [3] (setting [11]) was 0.457 µM; in [4] (setting [11]), 1.67 µM; in experiment [5] (setting [11]), not below 30.7 µM.
In turn, RSTYRLDGW returned a dissociation constant Kd in experiment [2] (source organism: Mycobacterium tuberculosis) of 0.0453 µM.
LKILVLSIL: the equilibrium dissociation constant (Kd) was 11.1 µM in experiment [3] (setting [11]); 1.83 µM in experiment [4] (setting [11]); 0.272 µM in [6] (setting [11]); 15.1 µM in experiment [5] (setting [11]); 11 µM in experiment [7] (setting [11]); not below 32.6 µM in [8] (setting [11]).
On to YYQLESTQI, for which the Kd in experiment [3] (setting [12]) was 0.126 µM; in experiment [4] (setting [12]), 0.0077 µM; in [6] (setting [12]) it was not below 52.8 µM; in [5] (setting [12]) it was 0.247 µM; in experiment [7] (setting [12]), not below 81.1 µM; in [8] (setting [12]), not below 77.9 µM.
KDFKCFNLI: the Kd was 0.395 µM in experiment [3] (setting [13]); 0.792 µM in [4] (setting [13]); 1.18 µM in experiment [6] (setting [13]); not below 78.9 µM in experiment [5] (setting [13]); not below 33.6 µM in [7] (setting [13]); not below 77.9 µM in [8] (setting [13]).
CTPPALNCY: the equilibrium dissociation constant (Kd) is not below 32.4 µM in [3] (setting [12]); not below 77.6 µM in [4] (setting [12]); not below 69.4 µM in [6] (setting [12]); 1.3 µM in experiment [5] (setting [12]); 4.79 µM in experiment [7] (setting [12]); not below 43.6 µM in experiment [8] (setting [12]).
For the sequence KWDLLKYDF, the dissociation constant Kd is 12.7 µM in [3] (setting [12]); not below 28.4 µM in experiment [4] (setting [12]); not below 78.1 µM in experiment [6] (setting [12]); 0.00495 µM in experiment [5] (setting [12]); 0.0893 µM in [7] (setting [12]); not below 77.9 µM in experiment [8] (setting [12]).
Consider MMSAPPAEY, for which the Kd in [3] (setting [12]) was not below 51.1 µM; in experiment [4] (setting [12]), 12.7 µM; in experiment [6] (setting [12]), 0.182 µM; in experiment [5] (setting [12]), 0.00123 µM; in experiment [7] (setting [12]) it was 0.000112 µM; in experiment [8] (setting [12]) it was 2.24 µM.
On to GTGPEASLPY, for which the Kd is not below 70 µM in [3] (setting [12]); not below 70.3 µM in experiment [4] (setting [12]); 0.349 µM in experiment [6] (setting [12]); 0.117 µM in experiment [5] (setting [12]); 0.92 µM in [7] (setting [12]); 0.412 µM in [8] (setting [12]).
Turning to SFYCDPKRYF, the values for the Kd in [3] (setting [14]), in [4] (setting [14]) and in experiment [5] (setting [14]) were 0.0846 µM, 0.443 µM and 0.0294 µM, respectively.
Regarding LSNFGAPSY, the equilibrium dissociation constant (Kd) in [3] (setting [12]) was not below 77.8 µM; in experiment [4] (setting [12]) it was not below 77.6 µM; in [6] (setting [12]), 0.0812 µM; in experiment [5] (setting [12]), 0.0139 µM; in experiment [7] (setting [12]), 0.00177 µM; in [8] (setting [12]), 4.58 µM.
Regarding FSSLPSYAAY, the Kd is not below 70 µM in experiment [3] (setting [12]); not below 70.3 µM in experiment [4] (setting [12]); 0.00204 µM in experiment [6] (setting [12]); 0.00885 µM in experiment [5] (setting [12]); 0.00277 µM in [7] (setting [12]); 0.261 µM in experiment [8] (setting [12]).
Regarding ISEPTIHLV, the Kd is 15.4 µM in experiment [3] (setting [11]); not below 77.5 µM in [4] (setting [11]); 0.626 µM in experiment [6] (setting [11]); not below 78.9 µM in [5] (setting [11]); 4.89 µM in [7] (setting [11]); not below 77.9 µM in experiment [8] (setting [11]).
Take SGKDTPGGY: the dissociation constant Kd in [3] (setting [10]) is not below 77.7 µM; in [4] (setting [10]), not below 77.5 µM; in experiment [6] (setting [10]), 13.6 µM; in [5] (setting [10]), not below 69.7 µM; in experiment [7] (setting [10]), 0.00285 µM; in experiment [8] (setting [10]) it was not below 77.9 µM.
GYCLTRWMLI: the values for the Kd in experiment [3] (setting [15]), in [4] (setting [15]) and in experiment [5] (setting [15]) were 0.242 µM, 1.1 µM and 12.2 µM, respectively.
As for HDHHFTPQI, the Kd in [3] (setting [16]) was not below 45.3 µM; in experiment [4] (setting [16]), not below 77.5 µM; in [6] (setting [16]) it was not below 78.1 µM; in experiment [5] (setting [16]), not below 78.9 µM; in experiment [7] (setting [16]) it was not below 76.9 µM; in experiment [8] (setting [16]) it was not below 77.9 µM.
With YQRPFGGQS, the Kd in experiment [9] is 3.71 µM.
RLDDDGNFQL registered an IC50 in experiment [1] (source organism: West Nile virus NY-99) of 0.847 µM.
With EYADVFHLYL, the Kd stood at 0.00955 µM in [3] (setting [12]); 0.0167 µM in [4] (setting [12]); 0.0855 µM in experiment [6] (setting [12]); 0.16 µM in [5] (setting [12]); 1.35 µM in [7] (setting [12]); 1.97 µM in experiment [8] (setting [12]).

Source of the values: the Immune Epitope Database (IEDB).
